Measured values reported in the DeepSol protein solubility set.

Assay: soluble on expression in E. coli; label from the status in PepcDB or PDB records
For “MTVTIKELTNHNYIDHELSATLDSTDAFEGPEKLLEIWFFPHKKSITTEKTLRNIGMDRWIEILKLVKCEVLSMKKTKELDAFLLSESSLFVFDHKLTMKTCGTTTTLFCLEKLFQIVEQELSWAFRTTQGGKYKPFKVFYSRRCFLFPCKQAAIHQNWADEVDYLNKFFDNGKSYSVGRNDKSNHWNLYVTETDRSTPKGKEYIEDDDETFEVLMTELDPECASKFVCGPEASTTALVEPNEDKGHNLGYQMTKNTRLDEIYVNSAQDSDLSFHHDAFAFTPCGYSSNMILAEKYYYTLHVTPEKGWSYASFESNIPVFDISQGKQDNLDVLLHILNVFQPREFSMTFFTKNYQNQSFQKLLSINESLPDYIKLDKIVYDLDDYHLFYMKLQKKI”, the “soluble on expression in E. coli” value was “soluble”.
For “MIPKVIHYCWFGGNPLPDNLKKYIKTWREQCPDYEIIEWNEHNYDVSKNVFMREAYTKKNFAYVSDYARLDIIYTYGGFYLDTDVELLKSLDPLRIHECFLAREISCDVNTGLIIGAVKGHHFLKSNMSIYDKSDLTSLNKTCVEVTTNLLINRGLKNKNIIQKIDDITIYPRNYFNPKNLLTGKVDCLTSVTYSIHHYEGSWKSSSFISDSLKIRVRLIIDFLFGYGTYRMLLRFLKLKKLEHHHHHH”, the “soluble on expression in E. coli” value was “soluble”.
For “MHHHHHHAMDTYKLFIVIGDRVVVVTTEAVDAATAEKVFKQYANDNGVDGEWTYDDAAKTFTVTE”, the “soluble on expression in E. coli” value was “soluble”.
For “MAGDPMKKTLTVTVSSVLAFLALNNAAHAQQHGTQVKTPVQHNYVSNVQAQTQSPTTYTVVAGDSLYKIALEHHLTLNQLYSYNPGVTPLIFPGDVISLVPQNKVKQTKAVKTPVRKASQAKKVVKQPVQQASKKVVVKQAPKQAVAKTVNVAYKPAQVQKSVPTVPVAHNYNKSVANRGNLYAYGNCTYYAFDRRAQLGRSIGSLWGNANNWNYAAKVAGFKVDKTPEVGAIFQTAAGPYGHVGVVESVNPNGTITVSEMNYAGFNVKSSRTILNPGKYNYIHLEHHHHHH”, the “soluble on expression in E. coli” value was “not soluble”.
For “MAHHHHHHMLLLKRPFLPARVAPLCAQRKVSRLITYYTKSHEYIKINDEDLTELKKKNNVKCKIGISNYGTEKLGEIVYIDISQNINEYVKKGECIATVESVKSVGDVYTPISGQIVDINNEIVDNVNLMNGNSESDGWILELLTNDVNEKEIMSFSEYKKMCEEEEQREATKIQQSERDCLEEKNKNKIFDLNDIKNIEEKTKK”, the “soluble on expression in E. coli” value was “soluble”.
In the case of “MGHHHHHHSHMSAVGTATPYLHHPGDSHSGRVSFLGAQLPPEVAAMARLLGDLDRSTFRKLLKFVVSSLQGEDCRDCCSVLGSAPTCRRAAGCLLAGMHTLLQQALRLPPTSLKPDTFRDPAPGALHPPRPGRGLGQRGIWEPAALLDSVAQQQGAWLPHVADFRWRVDVAISTSALARSLQPSVLMQLKLSDGSAYRFEVPTAKFQELRYSVALVLKEMADLEKRCERRLQD”, the “soluble on expression in E. coli” value is reported as “soluble”.
With “SMSNDKTGKSLEQENSERDVEIRDRNYFRKLSLFDDTVIAGAEMIGTSYDVFGKYCNVGSCMNSLFDERKINASEDNFKKVTILGKTLKVPYYIDCYSVGDLKYTNASGESIESYQSNISSKSRIKGNYLFFSASLKVDFDTDSLTDFENAFSRIQYTYDLYILKSSAEALKEFLKESVKTALDKADTEEDMNDLFNTWGSHFLSGVVMGGCAQYSSSTNKYTSNLTNSFDVVAAASFAGFIGLSARTGNSFMEDIKKFRSASNIKTHAIGGDLSRFDPFGGATSADQPSAEEIAAAKKAFEDWKASVPNAPELVNFADSNPLTGIWELCSDRTQKAKLKKHFETVWAPAESAKRRVHADYIDEIIIGINNTNTPPEGYIGLKSTKDENLNSKGNICLFMHKAKYDPNIDNKDCITELKFITVRDKSPEGDWVKIPQDIYISPNQYLYLCYLPAKYSAEKAIKDIQLLCSSCGSSMILPYGYNDVLDERGERANATEDDNVHYLIYSAGWK” the “soluble on expression in E. coli” value was “soluble”.
With “MTQAADILIAGGGLNGPALALALARNGFSVTVVDGRPAPQRAEPGFDGRAYALALASKRLLAALGLWDGLASQAQPILRVVTADGTTAGGPSPFVLAFDHAEIEEGPMGYLLEDRFLYAAFLAALEAEPRIRLVSGTTVEAQEVGPQGVTVTLSTGAQLSGRLLVGCDGRQSGTARRAGIRRSGWGYGQTALVTAIEHERPHEGTAWQYFLPGGPLAILPLPGGHRSSIVWSESDAAAAGIQRLPDADYLGALRPRFGDFLGSIRLAGDRFTYPLSLSLAHSFVAPRVALVGDAAHGVHPIAGQGLNLGLRDVAALAEVLTLAARRGEDVGSPLVLDRYQQWRRFDATALALGMDMVNRLFSNDNPVMRAGRDLSMGIVNALPGLRRGFIRQAAGLSGDLPRLLQGRPILEHHHHHH” the “soluble on expression in E. coli” value was “not soluble”.
In the case of “MGSDKIHHHHHHMLSNKNKIRKLLNGIETGDPDAALVVNEQKYIQHNPHTKEGNIGLAELFKQIAKTGPRVNMIRVFEDKDFVFAHMEYHFSTLKVAFEVFRFEDGFAVEHWDNMQLMQKVNASGRSMLDGYLITEDHDLTEFNRSRVSLFANEILIKRKLDLLIDFVCDDNFIQHSPLLADGISALRSTLSATSKQKYKITYSKIHRVLAEGNFVLSVSEGLMDEKHCSFYDLYRIEKGKIVEHWDTIEPIPPRTEWKNDNGKF”, the “soluble on expression in E. coli” value is reported as “not soluble”.
For “MTLKFSYFGTRGIGEPIRMLLTDQEVAFIDHRFSWEQWADIKPTMIFGSCPCLTMGDKEIVQSGTIIRHLARIHGLNGTNEEETIFIDMFYEGVRDLHATYATMIYQNYENGRQPFIQDVLPEHLARLEKLFRTYENGENFVAGANISYVDYVLFEELDIQKILSPTALDRTPQLKKFHEQFGERKNLTEYLKKRAIMKTPVNGNGKQ”, the “soluble on expression in E. coli” value was “not soluble”.
With “MRYSSRMPGSVMPGAGAHPRIPQVQTSVANSQILGYLGRALSLEFTAGQHYLAQASLAKFRQEISYAEGFITLANEEFQHANLITDRMVAQGALPAGSVLRPAGSANNIAEALKSCEEREIALIQLYTEATQYCANMGAQEDHALFSRLLEEEQSQLMRVQAWLQDYFQMMANTYQPDRSFV” the “soluble on expression in E. coli” value was “not soluble”.
With “MGEEKEIRIIVLEDGEHLESVIRKIEKGWIVRFKRGSSLLGKKVKVFTSICPGNSLEWSEGKDHLAVYCQVECKEAGSFRYWFKIEDSEERGSGYFLVMPELKINGKCLPLDGIACQTYLTKLLGPLSEWKERLEVAHQTGYNMIHLTPIHELGISNSSYSLSDHHSLIKTIQSQDQKFGFEDVQALVGDLERSWNILTVQDVVWNHAAKNATWLLEHPESAYNCLNSPHLRPAYVIDRVYHEFGKQIGEGVWEHRGVPPVVDNIHHVNAIEYLLRAEVLPKADLHEFYQVDLKAMVNLFEVFIKQSSGPTTNPLDGEDVEIEQDLECRRFGNTVDFERSARIFNRHRGDAKSEEERVEKCVRSFEEALNNKNLEAARESWEVILAGLAAVMGGITYERIADNGPKKGLVSPENPLTTDYFLHLEADLGWKSEEKFAYDPEKSKFLMAFNGWVMSSDPMKNFALKESQVYLRRELVCWGDSVKLNYGNKEADSPFLWQYMKEYTQQAARIFHGLRIDNAHGTPIHVAEKLLKTAREVRPDIYVFAELFTGSEHADNMFVNRLGISSLIREAQSAHDSHEQGRLVYRYGGDCVGAFKQKSARLAPKSIAHGLFLDQSHDNPSPIHTRSPFDILPTAAMLTMASCAVGSNRGYDELIRDHIHVVSEKRPYASWCRPDQVSRSQGIIEGRNLLNKLHTWLAEHGYSQVFVDQMNSDIVGITRHNPRTHETVVVVSHTSFSKNYIDWPGGLKHIPIGGVLENVIFEMKLKKVQEEWGTEDPDVLIGLKNYEMEIRENVNLDNGTMFKVHDGYIELTNFPTGSVVGFKIRPSDEATKAFNMIHNSITPEQSEFDSALSRLTYQSFPNLLFHCESEDYATIQQGGYDVPNFGKFVYCGLQGLVPVLEKIRDDNDLGHPLCQNLRDGTWICDYIVGRLAKFEKLGEVSEAIRKFFAPLDHVPYYLRPCYFELLVSYIYGKIRKEALKRMAPQISSSSALVRHLAISTLSFLGYIPGAGLAPIPTSLQIEDQYPSSLAAGLSHFAVGIWRNWGRDTFIALPGCLLSTGRFQEARQIILSFAGAIRHGLIPNLLAEGIGARYNCRDATWFWLVSIVKYVESAPNGVGILEDPVRRIYPNDDSVYGEGEVQQMLIETIYEALDKHFAGIDYRERSAGPQIDEQMRDEGFQVTAGVSRTTGFIYGGNRWNCGTWMDKMGSSERAGNKGEPATPRDGAAVELQGLAYRALKSLKNWKEQGVIQRSGVSDEWTWGFWAQKIRENFEKEFFVDKDSYAEFVNRREIIKDSVGSTLGFTDFQLRCNFGIALAVAPDLMDPKKAWKALDSAEVLLGPLGMKTLDPTDWAYNGYYNNDDDGTDKKTAKGWNYHQGPEWLFVAGYYLQARLRIGDILGGSEKQYAIRQVQERLGNAYKHIISSPWRSLPELTNADGEYCMQSCAAQAWSVGCLIEACVKLNTIEG” the “soluble on expression in E. coli” value was “not soluble”.
For “MGSDKIHHHHHHMSKILMVGSGPVAIQLARLCNLHGEHMVDMVSRVHASTKSKRVFDAYHRDGFFSVMTQNDAHQCFSGKFTVRHFFKDVKDITQYYDVVILACTADAYRPILQQLSKSTLKRIKQIILVSPTLGSHMLVKQILSDVHCEGEVISFSTYLGDTRIFDKAQPHCVLTTRVKSKLFVGSTHSQSITLYKLKSLFDYLNIELTTMDTPLHAEIHNSSLYVHPPLFMNQFSLKAVFEGTKVPVYVYKLFPEGPITMTLIHEMRLMWQEMMMILKKLKVPSVNLLKFMVKENYPIRDETMREVDIESFENLSAIHQEYLLYVRYTAILIDPFSNPDDQGAYFDFSAVPYKHVDTDEQGVIHIPRMPSEDYYRTLMIQAIGRALNVATPMIDTMLLRYETTVKQYCDTHLHQQLSKQFELHHFKQDLALVTNYLTFYR”, the “soluble on expression in E. coli” value was “not soluble”.
In the case of “MGSDKIHHHHHHMEKRQSIKDIEANGDVRGLFLLGAATLNQARNGPFWRLELRDATGTMEAKIWSPQSQAYPDLAPGQIVDLEGRSGTYRDRVEVTVERLRTLGEAEQASLDISQFLPASERPAAEMLEELERLCREVFTHAPWRKFVLGVLRDDDVRPRLLVAPAAKAVHHAFVGGLVEHILSVTRLCLHLAEHYPELDRQALVAGAIFHDIGKVWELTGGLANDYSDEGRLLGHIHIGLERIEPHLRKSGLEPELVMHFKHLILSHHGELEYGSPKRPKTAEAMVLHYADNIDAKMAQMRGLFANMGEGETGWSPYQNTLQRFLYRPARTPEPVATTRRRRGTPEVEQCSLLSKA”, the “soluble on expression in E. coli” value is reported as “not soluble”.
With “MSLAGTIAIKNGYVFDPLNEINGEKMDIFIRDGKVVKELSASEMKTSRVIDASGMTVMPGGVDSHSHVAGAKVNAGRSMRPEDHYKANLKKTPLTHSGSGYTVPSVYKQGYDYAAMGYTTVFEAAVPPLEARHTHEEMRATPLLDMGGYLVLGNNFFLMRYLRDGDMEKAAAYVAWMMKTHKTYGIKCVNPAGVENWAWGKNVSTLDETNIHFEITPREVIKGLTEVNETLGMPMPVHLHANNLGHPGCYAITKDSLKIPDGVKTKQNMAVEWAETKMDLSRDRSVYLTHLMFNSFAGTTWGDCESGVKDIADYINNKDHVVIDSGCTPFGEATVMTGDGPAIHDLYTLTGNKWSNTDVEMECGSGVLPFTYLKSNPVHSLQWAMGLECLLLIKDPWKTIMTTDSPNGGPFTKYPEVMTWIMSEAFRKQTFSECHKWANDRSELGGINRELSLYDLAILTRANPAKTIGMAHRKGSLGVGADGDVTVYNINPQQLDANNYEALLRTFRKAEYTVKGGEIVAVKGEIVSLPEKRTYYSEVHVENEREKEMLVDVKEWFRYYTLGFANYSTPEKYLANPTPIQVNSEGHHHHHH” the “soluble on expression in E. coli” value was “not soluble”.
For “MQLSKFFQKPQLLFRVAQPKDKENILKFLDAHFAKEEPCARALKLSPETSRGIFTTTVTRCLNFPFSTVVLQENDEIAACLLASVWNRTDPIDSADFNSSGMPENLKLFVQFINSAHSNFWKIAPPNVNSIIHREIGSVAPQFTRKGIATRMVTTNMTKTNLKKYNIGGVLSETSSLANQIVLQKAGFKCLKELPYSAIVDSKGNRVLRPDDGTTSLCLNFKPIEEYENLPE”, the “soluble on expression in E. coli” value was “not soluble”.
